Biological target: GCNt stabilized pre-fusion soluble version of the NiV-F glycoprotein (NiV-sFGCNt) (Nipah virus) (UniProt Q9IH63)
Assay: crystal structure

Substance: GCNt stabilized pre-fusion soluble version of the NiV-F glycoprotein (NiV-sFGCNt) (from UniProt Q9IH63 27-488) (domain or fragment)
- stoichiometry N: 3

Reference: PMC4672880
